According to publication PMC4817131, “Human DNA polymerase α in binary complex with a DNA:DNA template-primer”:

Legend:
[1] = molecular target: T1, DNA polymerase alpha catalytic core (p180, hPolα) (Homo sapiens, UniProt P09884 338-1259); test: X-ray crystallography (3.3 Å); crystallized with Mg2+ and dCTP; neither bound in active site (binary complex); 50 mM Bis-Tris pH 6.5, 100 mM NaCl, 5 mM MgCl2, 23 °C; 2 nM labeled duplex, 0.1-16000 nM protein, >30 min; conditions: protein: recombinant; tags: N-terminal His6-SUMO (His6-SMT) removed by SUMO protease; template 5' overhang 5 nt, one replicative end
[2] = molecular target: T1, DNA polymerase alpha catalytic core …; test: fluorescence anisotropy; 5 mM MgCl2, no dNTP; 50 mM Bis-Tris pH 6.5, 100 mM NaCl, 5 mM MgCl2, 23 °C; 2 nM labeled duplex, 0.1-16000 nM protein, >30 min; conditions: protein: recombinant; tags: N-terminal His6-SUMO (His6-SMT) removed by SUMO protease; label: 5' 6-FAM on template; template 5' overhang 20 nt, one replicative end

T1 sequence (P09884 338-1259): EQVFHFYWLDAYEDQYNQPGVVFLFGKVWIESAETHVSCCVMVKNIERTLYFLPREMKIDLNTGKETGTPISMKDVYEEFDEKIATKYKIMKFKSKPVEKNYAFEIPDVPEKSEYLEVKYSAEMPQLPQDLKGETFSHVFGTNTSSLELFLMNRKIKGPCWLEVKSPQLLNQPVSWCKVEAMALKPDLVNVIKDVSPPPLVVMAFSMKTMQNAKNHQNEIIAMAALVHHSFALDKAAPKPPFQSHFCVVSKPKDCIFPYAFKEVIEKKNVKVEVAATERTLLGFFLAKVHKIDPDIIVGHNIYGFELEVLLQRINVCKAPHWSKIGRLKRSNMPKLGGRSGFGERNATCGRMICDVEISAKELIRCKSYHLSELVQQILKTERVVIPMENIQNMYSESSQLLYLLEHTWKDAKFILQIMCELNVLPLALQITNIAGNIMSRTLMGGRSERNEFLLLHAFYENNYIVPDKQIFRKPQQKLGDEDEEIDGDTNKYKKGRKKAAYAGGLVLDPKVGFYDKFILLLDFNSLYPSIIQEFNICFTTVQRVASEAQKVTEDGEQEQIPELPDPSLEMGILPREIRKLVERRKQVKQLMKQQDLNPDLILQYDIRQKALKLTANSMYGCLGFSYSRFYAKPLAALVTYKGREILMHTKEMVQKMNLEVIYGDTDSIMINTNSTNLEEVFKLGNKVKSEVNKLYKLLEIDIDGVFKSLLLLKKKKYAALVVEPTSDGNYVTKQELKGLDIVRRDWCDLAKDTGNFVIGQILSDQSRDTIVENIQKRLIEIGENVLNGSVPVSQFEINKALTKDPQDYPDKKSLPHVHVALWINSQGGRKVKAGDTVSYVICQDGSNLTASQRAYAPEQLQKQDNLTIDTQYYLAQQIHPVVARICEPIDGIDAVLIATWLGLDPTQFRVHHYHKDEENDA

Row | Binder | binding result [1] | Kd [2]
1 | 13-nt DNA primer/18-nt DNA template (dsDNA, primer 3'-terminal dideoxycytosine) DNA 1: TAATGGTAGGGGAAGGAT DNA 2: ATCCTTCCCCTAC | binds | 
2 | 10-nt DNA primer/30-nt DNA template (dsDNA) DNA 1: CTTAGGATGGAGAAAGGTAAGATGAAGCCG DNA 2: CGGCTTCATC |  | ~430 nM
3 | 10-nt RNA primer/30-nt DNA template (DNA:RNA) DNA: CTTAGGATGGAGAAAGGTAAGATGAAGCCG RNA: CGGCUUCAUC |  | ~320 nM
